Results as given in the RNAGym collection of RNA variant scans (doi:10.1073/pnas.2313332121).

B1: TPR t1 (parent)
chain: GACCAAUCUGCCCUCAGAGCUCGAGAACAUCUUCGGAUGCAGAGGAGGCAGGCUUCGGUGGCGCGAUAGCGCCAACGUCCUCAACCUCCAAUGCAUCCCACCACAUGAUGAUGCCUGAAGAGCCUUGGUUUUUUG

Variants of: B1
Assay: polymerase ribozyme fitness, log enrichment relative to wild type (log ratio); higher = more active; in vitro selection for triplet polymerase activity
Outline: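 Fitness is a logarithmic measure of how a genotype enriched relative to the wild type, with replicate averages weighted by inverse variance. The logarithm uses base 2, and enrichment came from Illumina sequencing of input and output libraries. Those libraries were PCR-built, transcribed mutants of each subunit of a heterodimeric triplet polymerase ribozyme, passed through one triplicate in vitro selection round that included frozen incubation at −7 °C, gel excision of extended constructs and streptavidin-bead capture. Genotypes were kept only if they had ≥10 input reads and ≥1 read per output.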

| Variant | polymerase ribozyme fitness (log ratio) |
| --- | --- |
| G69A C99U | -5.78 |
| G69A C99A | -7.72 |
| G69U G120A G128C | -1.25 |
| G69U A83U A95U U106A | 0.29 |
| G69U A119U | 0.577 |
| A66C A75G | -1.09 |
| G69U C73U G110A C123A | -0.661 |
| G69U C85G | -0.537 |
| A68G U78A C79U U106G | -6.12 |
| G69C G117U | -3.02 |
| G69C G117C | -3.97 |
| G69U C104A U116A C124U | -0.357 |
| G69U C98U U112G | -1.16 |
| G69U C124U | 2.41 |
| G65U C70U | -5.58 |
| G69U U78C C88U | 0.314 |
| G69A U109A | -5.09 |
| G69U U78C | 0.191 |
| A66U U116G | -3.73 |
| G69A G127A | -4.05 |
| A66G U131G | -2.21 |
| G69C C94U U96A | -2.83 |
| G69C U106C | -1.22 |
| G69C C85U C86A | -3.64 |

| Variant | polymerase ribozyme fitness (log ratio) |
| --- | --- |
| G69C G93C G122A | -4.01 |
| G65C C124A | -4.91 |
| G65U C123G | -4.68 |
| G69U C114U U130G | -1.33 |
| U67C G93U | -5.03 |
| G69U G117C U130C | -2.79 |
| G65A G77A | -5.24 |
| G69C G93C | -3.05 |
| G69C G93U | -2.49 |
| G69C C104A U106C U129A | -5.53 |
| G69A C76A C123U | -5 |
| G69C C72U U92C C101U G117U | -5.11 |
| G69U G117U | -1.07 |
| A68C C115G C124U | -6.57 |
| G69U A95U G122A | -0.876 |
| A66C G120U U132C | -0.962 |
| G69C A84G A118U G127A | -2.68 |
| G69U U109A | -2.79 |
| G69U G110A | 0.0569 |
| A66G A83C C89U A95C | -2.97 |
| G69U C82U A111C U112A G122C | -0.869 |
| G69U G122A | 0.377 |
| G69A C101U | -2.16 |
| G69A C101A | -3.72 |

| Variant | polymerase ribozyme fitness (log ratio) |
| --- | --- |
| G69C C102U | -3.02 |
| G69A C80U | -2.58 |
| G69A C98A A121U | -6.1 |
| G69U C73G C80A | -7.09 |
| G65A A111C | -5.66 |
| G69U C86U | -0.254 |
| G69U C86G G120C | 0.63 |
| G69A A91C U125A | -6.56 |
| G69U C99A A111C | -2.81 |
| A66U C72G | -1.63 |
| A68G U131A | -3.5 |
| C64U U92C | -1.23 |
| C64U U92G | -3.31 |
| G69A C89U | -2.85 |
| G69A C89A | -4.54 |
| G69U C79A C88G | -0.43 |
| G65A G110A | -5.47 |
| G69U A119G G122C | -2.33 |
| A66C U96C | -2.57 |
| G69C C98A C104A C115U | -7.27 |
| G69U C97U | 0.163 |
| G69U C97G | -3.33 |
| A66U C97U G120U C123U | -0.305 |
| G69U G93U G110A | -0.494 |

| Variant | polymerase ribozyme fitness (log ratio) |
| --- | --- |
| A68U C72U C82A G93C C115U G122A | -7.25 |
| G69U C72U C79U | -0.113 |
| G69A C82U | -2.48 |
| A66U G71A | -2.53 |
| A66U C88U | -0.564 |
| A66U A74G A118U | -0.793 |
| A68C C72U U78C C114G G120A C123U | -7.64 |
| G69C C115G | -3.08 |
| G69U G120U U132C | 1.03 |
| G69C U109A | -8.01 |
| A66C C72G C115A | -1.65 |
| A66G U87A | -0.982 |
| G69A C104U | -2.37 |
| A66G U78C U87G | -0.388 |
| A66C C85G U130A | -3.4 |
| A68G C73U C124U G135U | -3.48 |
| A66G G122A U129C | -2.27 |
| A66G G77U C89A | -4.38 |
| G69U A74U C80U | -0.977 |
| G65A G69A U112C | -4.9 |
| G69U G128C | -1.01 |
| G69U C104U G127A | -0.309 |
| G69U G93C | -0.253 |
| G69C A84C G128C | -4.09 |

| Variant | polymerase ribozyme fitness (log ratio) |
| --- | --- |
| G69U U81G A103U | -6.76 |
| G69C A91U | -3.08 |
| G69U G71A A84C | -4.28 |
| G69U C94U G120A | 1.2 |
| G69U C104U C115U | 1.66 |
| A68U G69A | -6.04 |
| G69U U81C G120C G122A G128A | -3.32 |
| A66C C85A | -3.06 |
| A68U U78C | -6.34 |
| G69U A84U A90U | -0.387 |
| G69C U78G C115U U125A | -5.54 |
| A66U A83G C86U | -2.39 |
| A66G C76G | -1.2 |
| A66G C76A | -1.89 |
| A68G C85A | -4.94 |
| A68G A103C | -5.02 |
| G69C C123U | -0.24 |
| A66U A90G A91G A103G G107C A121G | -5.84 |
| G69A C102A | -6.02 |
| G69A U87G | -2.08 |
| G69A U87C | -2.12 |
| G69A G107C U112A | -6.47 |
| G69U A118C | -2.03 |
| G69U C101A | -0.434 |

| Variant | polymerase ribozyme fitness (log ratio) |
| --- | --- |
| G69C A83G | -2.31 |
| A68C U78G U112A | -7.68 |
| G69U C73U | 0.225 |
| G69A U78G | -2.63 |
| G69A U78A | -2.94 |
| G69A U78C | -2.5 |
| C64U U87G G113A | -0.485 |
| A68G A100C | -4.96 |
| G69A C114A A121G U130G | -4.38 |
| G65A C72U | -6.47 |
| U67G U92G C99G A121G | -7.6 |
| G69A C86U | -3.19 |
| G69C C88G | -2.63 |
| G69C U96C | -2.24 |
| G69C C79U G117U U134G | -1.73 |
| G69U C102G A119G | -2.01 |
| G69C C104A | -1.87 |
| G69C C104U | -1.49 |
| A68U C124A | -4.62 |
| A68U C124G | -4.93 |
| A66C G69C C97G C101A G107A U112G U130G | -6.88 |
| G69U C85A C101A | -1.66 |
| G69U G107C | -4.24 |
| A66G A100U G120C | -0.756 |

| Variant | polymerase ribozyme fitness (log ratio) |
| --- | --- |
| G69U C88U G120U | 0.599 |
| G69A G110U | -3.36 |
| G69A G113U | -5.37 |
| G69A G113C | -3.4 |
| G69A G113A | -2.7 |
| A68U C82U A91G C101G C123U G128U | -5.8 |
| A68G C73G U129C | -5.86 |
| A68G A74G C79A | -4.8 |
| G69A G71U | -4.27 |
| G69A U130A | -3.11 |
| G69A U130C | -3.09 |
| G69A U130G | -2.69 |
| G69A U96G A121C | -1.72 |
| G69A C72U | -1.06 |
| A66C C72U C80U U126G G128A | -4.37 |
| A68G G110U | -3.66 |
| A68G G110C | -5.66 |
| G69A G122A | -2.53 |
| G69C U133G | -1.57 |
| C64U U116G | -1.88 |
| G69C U81C | -1.86 |
| G69U U87C | 0.421 |
| A68C A105C U112G | -6.56 |
